Experimental data from publication PMC9360449, “Programmable RNA targeting by bacterial Argonaute nucleases with unconventional guide binding and cleavage specificity”.

How the values were obtained:
[1] = test system: PnyAgo WT (Pedobacter nyackensis); assay: filter binding; conditions: 10 mM Tris-HCl pH 7.9, 100 mM NaCl, 5 mM MgCl2 (or none), 5% glycerol, 100 ug/ml BSA, 37 C
[2] = test system: PnyAgo WT (Pedobacter nyackensis); assay: competition; conditions: filter binding, 100 nM pAgo; 5'-OH; 10 mM Tris-HCl pH 7.9, 100 mM NaCl, 5 mM MgCl2 (or none), 5% glycerol, 100 ug/ml BSA, 37 C
PliAgo WT [3] = molecular target: T1, PliAgo WT (Pseudooceanicola lipolyticus, UniProt A0A2M8J4C7 1-789); assay: X-ray crystallography; 10 mM Tris-HCl pH 7.9, 100 mM NaCl, 5 mM MgCl2 (or none), 5% glycerol, 100 ug/ml BSA, 37 C; conditions: protein: recombinant; tags: N-His6; single strand
T1 sequence: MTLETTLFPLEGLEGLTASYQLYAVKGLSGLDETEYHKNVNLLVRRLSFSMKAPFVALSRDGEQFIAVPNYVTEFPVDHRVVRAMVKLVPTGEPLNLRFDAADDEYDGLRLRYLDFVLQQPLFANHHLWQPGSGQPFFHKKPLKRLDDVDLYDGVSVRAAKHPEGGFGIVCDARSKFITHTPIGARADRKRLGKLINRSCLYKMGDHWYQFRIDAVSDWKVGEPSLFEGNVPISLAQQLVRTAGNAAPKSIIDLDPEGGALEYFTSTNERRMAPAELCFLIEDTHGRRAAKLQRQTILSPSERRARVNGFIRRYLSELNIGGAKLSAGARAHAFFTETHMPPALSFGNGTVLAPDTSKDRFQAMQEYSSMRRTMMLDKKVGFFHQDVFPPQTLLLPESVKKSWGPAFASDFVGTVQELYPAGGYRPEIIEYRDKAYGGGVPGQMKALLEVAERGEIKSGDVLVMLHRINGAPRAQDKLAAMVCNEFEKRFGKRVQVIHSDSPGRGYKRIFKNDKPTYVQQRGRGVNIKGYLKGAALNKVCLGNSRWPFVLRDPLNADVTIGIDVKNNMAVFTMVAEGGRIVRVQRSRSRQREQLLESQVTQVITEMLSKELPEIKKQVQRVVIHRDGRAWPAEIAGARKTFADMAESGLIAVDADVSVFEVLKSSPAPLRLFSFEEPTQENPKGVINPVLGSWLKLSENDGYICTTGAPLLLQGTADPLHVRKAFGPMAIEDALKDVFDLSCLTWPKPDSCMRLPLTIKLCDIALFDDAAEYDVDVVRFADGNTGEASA

PliAgo WT [4] = molecular target: T1, PliAgo WT; assay: X-ray crystallography; no Mg2+; conditions: protein: recombinant; tags: N-His6; single strand

GTTAGACTTTAAGTCAAT / UUUAUCAAAAAGAGUAUUGACUUAAAGUCUAACCUAUAGGAUACUUACAG [guide DNA / G-target-RNA]
Kd ([1]; guide-loaded, 5'-phosphate on guide): 7.5 nM

GTTAGACTTTAAGTCAAT [5'-OH guide DNA (G-guide)]
binding signal (fold Kd increase vs 5'-P guide) [2]: 12

GTTAGACTTTAAGTCAAT [5'-P guide DNA (G-guide)]
Kd ([1]; 5 mM Mg2+, 5'-phosphate): 31 nM
Kd ([1]; no Mg2+, 5'-phosphate): 390 nM

GUUAGACUUUAAGUCAAU [guide RNA (G-guide-RNA)]
Kd ([1]; 5 mM Mg2+, 5'-phosphate): > 1000 nM

B1: 3D-guide OH-gDNA (ssDNA)
DNA: TTACTGCACAGGTGACGA
modifications: 5'-OH
binding result (PliAgo WT [3]): binds

B2: 3D-guide P-gDNA (ssDNA)
DNA: TTACTGCACAGGTGACGA
modifications: 5'-phosphate
binding result (PliAgo WT [4]): binds
